According to publication PMC5325763 (Cell, 2017):

Target: T1, FLAG-tagged FAAP20 (human, UniProt Q6NZ36 1-180)
T1 sequence (looked up): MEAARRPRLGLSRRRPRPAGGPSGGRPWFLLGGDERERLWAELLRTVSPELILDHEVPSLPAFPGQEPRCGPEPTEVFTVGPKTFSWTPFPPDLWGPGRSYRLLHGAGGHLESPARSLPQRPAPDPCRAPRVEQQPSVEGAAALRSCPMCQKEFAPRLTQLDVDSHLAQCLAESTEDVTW
Assay: LUMIER

B1: Renilla luciferase-tagged FANCA R880Q (natural protein, human, UniProt O15360-1 1-1455, looked up)
chain: MSDSWVPNSASGQDPGGRRRAWAELLAGRVKREKYNPERAQKLKESAVRLLRSHQDLNALLLEVEGPLCKKLSLSKVIDCDSSEAYANHSSSFIGSALQDQASRLGVPVGILSAGMVASSVGQICTAPAETSHPVLLTVEQRKKLSSLLEFAQYLLAHSMFSRLSFCQELWKIQSSLLLEAVWHLHVQGIVSLQELLESHPDMHAVGSWLFRNLCCLCEQMEASCQHADVARAMLSDFVQMFVLRGFQKNSDLRRTVEPEKMPQVTVDVLQRMLIFALDALAAGVQEESSTHKIVRCWFGVFSGHTLGSVISTDPLKRFFSHTLTQILTHSPVLKASDAVQMQREWSFARTHPLLTSLYRRLFVMLSAEELVGHLQEVLETQEVHWQRVLSFVSALVVCFPEAQQLLEDWVARLMAQAFESCQLDSMVTAFLVVRQAALEGPSAFLSYADWFKASFGSTRGYHGCSKKALVFLFTFLSELVPFESPRYLQVHILHPPLVPGKYRSLLTDYISLAKTRLADLKVSIENMGLYEDLSSAGDITEPHSQALQDVEKAIMVFEHTGNIPVTVMEASIFRRPYYVSHFLPALLTPRVLPKVPDSRVAFIESLKRADKIPPSLYSTYCQACSAAEEKPEDAALGVRAEPNSAEEPLGQLTAALGELRASMTDPSQRDVISAQVAVISERLRAVLGHNEDDSSVEISKIQLSINTPRLEPREHMAVDLLLTSFCQNLMAASSVAPPERQGPWAALFVRTMCGRVLPAVLTRLCQLLRHQGPSLSAPHVLGLAALAVHLGESRSALPEVDVGPPAPGAGLPVPALFDSLLTCRTRDSLFFCLKFCTAAISYSLCKFSSQSRDTLCSCLSPGLIKKFQFLMFRLFSEAQQPLSEEDVASLSWRPLHLPSADWQRAALSLWTHRTFREVLKEEDVHLTYQDWLHLELEIQPEADALSDTERQDFHQWAIHEHFLPESSASGGCDGDLQAACTILVNALMDFHQSSRSYDHSENSDLVFGGRTGNEDIISRLQEMVADLELQQDLIVPLGHTPSQEHFLFEIFRRRLQALTSGWSVAASLQRQRELLMYKRILLRLPSSVLCGSSFQAEQPITARCEQFFHLVNSEMRNFCSHGGALTQDITAHFFRGLLNACLRSRDPSLMVDFILAKCQTKCPLILTSALVWWPSLEPVLLCRWRRHCQSPLPRELQKLQEGRQFASDFLSPEAASPAPNPDWLSAAALHFAIQQVREENIRKQLKKLDCEREELLVFLFFFSLMGLLSSHLTSNSTTDLPKAFHVCAAILECLEKRKISWLALFQLTESDLRLGRLLLRVAPDQHTRLLPFAFYSLLSYFHEDAAIREEAFLHVAVDMYLKLVQLFVAGDTSTVSPPAGRSLELKGQGNPVELITKARLFLLQLIPRCPKKSFSHVAELLADRGDCDPEVSAALQSRQQAAPDADLSQEPHLF
  fold weaker binding than wild-type FANCA: ~8 fold
